The values below come from article PMC5737501.

Where two headings read alike, the source gives them in different places.

What all share (test): single-molecule TIRF colocalisation imaging
For test [1], the target named is H3K9me3 chromatin fiber, 12 × 601 array with 177 bp nucleosome repeat length (a177) (human) (UniProt P62805).
Test [2] has as its target H3K9me3 and H4KS16ac chromatin fiber, 12 × 601 array with 177 bp NRL (a177) (human) (UniProt P62805).
The target in test [3] is H3K9me3 chromatin fiber, 12 × 601 array with 197 bp nucleosome repeat length (a197) (human) (UniProt P62805).
The target of test [4] is H3K9me3 and H4KS16ac chromatin fiber, 12 × 601 array with 197 bp NRL (a197) (human) (UniProt P62805).
Test [5] has as its target H3K9me3 chromatin fiber, 12 × 601 array with 177 bp nucleosome repeat length (a177) (human) (UniProt P62805). The source holds these as a separate data set.

Sequence of HP1β, labeled with Atto532 at its C-terminus (P83916 whole entry): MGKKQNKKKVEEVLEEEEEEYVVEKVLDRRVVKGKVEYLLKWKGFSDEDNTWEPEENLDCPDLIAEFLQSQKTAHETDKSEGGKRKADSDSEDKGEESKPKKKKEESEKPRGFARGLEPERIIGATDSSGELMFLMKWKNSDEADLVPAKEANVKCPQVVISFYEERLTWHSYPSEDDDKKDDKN
Sequence of Phosphorylated HP1α (pHP1α), Atto532-labeled, phosphorylated with casein kinase 2 (P45973 whole entry): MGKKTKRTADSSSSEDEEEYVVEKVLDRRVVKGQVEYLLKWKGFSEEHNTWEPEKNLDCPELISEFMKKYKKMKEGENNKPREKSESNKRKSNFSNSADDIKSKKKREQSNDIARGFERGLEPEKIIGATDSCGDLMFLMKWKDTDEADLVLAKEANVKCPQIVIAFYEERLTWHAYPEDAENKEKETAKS
Sequence of HP1α, labeled with Atto532 at its C-terminus (P45973 whole entry): as above
Sequence of HP1γ, labeled with Atto532 at its C-terminus (Q13185 whole entry): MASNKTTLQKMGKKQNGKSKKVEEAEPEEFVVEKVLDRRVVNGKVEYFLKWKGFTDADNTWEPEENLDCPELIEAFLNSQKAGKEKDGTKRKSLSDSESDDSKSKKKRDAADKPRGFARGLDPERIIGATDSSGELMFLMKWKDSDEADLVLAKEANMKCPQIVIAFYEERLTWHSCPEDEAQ

“HP1β, labeled with Atto532 at its C-terminus (from UniProt P83916 1-185) (natural protein)”: in test [1], the kon – broadly, the second-order rate constant of association – amounted to 670000 M⁻¹ s⁻¹; the tau off,1 (residence time, fast phase) was found to be 0.19 s; the tau off,2 (residence time, slow phase) is 3.6 s.

As to “Phosphorylated HP1α (pHP1α), Atto532-labeled, phosphorylated with casein kinase 2 (from UniProt P45973 1-191) (natural protein)”, in test [1], the on-rate constant (kon) amounted to 1.73e+06 M⁻¹ s⁻¹; the tau off,1 (residence time, fast phase) is 0.26 s; the tau off,2 (residence time, slow phase) came out at 5.6 s.

Regarding “HP1γ, labeled with Atto532 at its C-terminus (from UniProt Q13185 1-183) (natural protein)”, in test [1], the association rate constant (kon) was 890000 M⁻¹ s⁻¹; the tau off,1 (residence time, fast phase) turned out to be 0.17 s; the tau off,2 (residence time, slow phase) was found to be 2.64 s.

Regarding “HP1α, labeled with Atto532 at its C-terminus (from UniProt P45973 1-191) (natural protein)”, the kon in test [2] stood at 2.76e+06 M⁻¹ s⁻¹; in test [3], 2.51e+06 M⁻¹ s⁻¹; in test [4], 2.25e+06 M⁻¹ s⁻¹; in test [1], 1.1e+06 M⁻¹ s⁻¹; in test [5] it was 360000 M⁻¹ s⁻¹. The tau off,1 (residence time, fast phase) in test [2] stood at 0.19 s; in test [3] it was 0.24 s; in test [4], 0.16 s; in test [1], 0.19 s; in test [5], 0.14 s. The tau off,2 (residence time, slow phase) in test [2] turned out to be 1.92 s; in test [3] it was 2.49 s; in test [4], 2 s; in test [1], 3.32 s; in test [5] it was 2.97 s.
